Test results: patent US7084111 (UNIVERSITY OF FLORIDA RESEARCH FOUNDATION, dated 2006)
Bridges are numbered along the chain shown (N, C = ends). Where no end group is shown, it is not given here. [ ]: non-standard residue; d: D form. Nle = CCCC[C@H](N)C(=O)O; Dap = NC[C@H](N)C(=O)O

B1: SEQ ID NO:31 (Tyr-c[Asp-His-Pro-Arg-Trp-Asn-Ala-Phe-Dpr]-Tyr) (peptide)
peptide: YDHPRWNAF[Dap]Y-NH2
modifications: lactam 2-10; N-terminus assumed
SMILES: C[C@@H]1NC(=O)[C@H](CC(N)=O)NC(=O)[C@H](Cc2c[nH]c3ccccc23)NC(=O)[C@H](CCCNC(=N)N)NC(=O)[C@@H]2CCCN2C(=O)[C@H](Cc2c[nH]cn2)NC(=O)[C@@H](NC(=O)[C@@H](N)Cc2ccc(O)cc2)CC(=O)NC[C@@H](C(=O)N[C@@H](Cc2ccc(O)cc2)C(N)=O)NC(=O)[C@H](Cc2ccccc2)NC1=O
B2: SEQ ID NO:1 (Tyr-c[Cys-Arg-Phe-DPhe-Asn-Ala-Phe-Cys]-Tyr) (peptide)
peptide: YCRF[dF]NAFCY-NH2
modifications: disulfide 2-9; N-terminus assumed
SMILES: C[C@@H]1NC(=O)[C@H](CC(N)=O)NC(=O)[C@@H](Cc2ccccc2)NC(=O)[C@H](Cc2ccccc2)NC(=O)[C@H](CCCNC(=N)N)NC(=O)[C@@H](NC(=O)[C@@H](N)Cc2ccc(O)cc2)CSSC[C@@H](C(=O)N[C@@H](Cc2ccc(O)cc2)C(N)=O)NC(=O)[C@H](Cc2ccccc2)NC1=O
B3: SEQ ID NO:39 (Tyr-c[Asp-His-DPhe-Arg-Nal(2′)-Asn-Ala-Phe-Dpr]-Tyr) (peptide)
peptide: YDHXRXNAFXY
modifications: Asp-Dpr side chain lactam bridge; Dpr; DPhe; Nal(2′); C-terminal amide (amide resin)
B4: SEQ ID NO:42 (Tyr-c[Asp-His-DPhe-Arg-Tic-Asn-Ala-Phe-Dpr]-Tyr) (peptide)
peptide: YDHXRXNAFXY
modifications: Asp-Dpr side chain lactam bridge; Dpr; DPhe; Tic; C-terminal amide (amide resin)
B5: SEQ ID NO:23 (Ac-Nle-c[Asp-His-Arg-Phe-DPhe-Lys]) (peptide)
peptide: Ac-[Nle]DHRF[dF]K-NH2
modifications: lactam 2-7
SMILES: CCCC[C@H](NC(C)=O)C(=O)N[C@H]1CC(=O)NCCCC[C@@H](C(N)=O)NC(=O)[C@@H](Cc2ccccc2)NC(=O)[C@H](Cc2ccccc2)NC(=O)[C@H](CCCNC(=N)N)NC(=O)[C@H](Cc2c[nH]cn2)NC1=O

Assays:
Assay in all cases: cell-based or functional assay
[1] = target: mouse melanocortin-1 receptor (mouse, UniProt Q01727 1-315)
Sequence of mouse melanocortin-1 receptor (Q01727 whole entry): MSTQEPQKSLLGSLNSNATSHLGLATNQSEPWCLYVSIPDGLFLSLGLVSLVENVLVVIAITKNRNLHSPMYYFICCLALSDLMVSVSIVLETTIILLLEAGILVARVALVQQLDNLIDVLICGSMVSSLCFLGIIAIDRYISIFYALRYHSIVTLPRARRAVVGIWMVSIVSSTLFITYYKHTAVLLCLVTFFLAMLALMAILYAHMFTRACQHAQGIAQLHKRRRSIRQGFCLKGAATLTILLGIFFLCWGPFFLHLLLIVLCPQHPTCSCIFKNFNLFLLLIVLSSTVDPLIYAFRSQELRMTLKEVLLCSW

[2] = target: mouse melanocortin-3 receptor (mouse, UniProt P33033 1-323)
Sequence of mouse melanocortin-3 receptor (P33033 whole entry): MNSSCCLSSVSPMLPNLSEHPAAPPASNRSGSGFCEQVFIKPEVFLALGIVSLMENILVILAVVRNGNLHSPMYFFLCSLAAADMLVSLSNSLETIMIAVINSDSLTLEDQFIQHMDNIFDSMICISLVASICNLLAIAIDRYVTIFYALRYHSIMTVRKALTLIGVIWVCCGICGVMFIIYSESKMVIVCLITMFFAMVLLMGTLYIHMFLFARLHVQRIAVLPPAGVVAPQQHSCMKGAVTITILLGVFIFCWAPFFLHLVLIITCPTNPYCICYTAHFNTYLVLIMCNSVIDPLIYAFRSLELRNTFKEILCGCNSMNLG

[3] = target: mouse melanocortin-4 receptor (mouse, UniProt P56450 1-332)
Sequence of mouse melanocortin-4 receptor (P56450 whole entry): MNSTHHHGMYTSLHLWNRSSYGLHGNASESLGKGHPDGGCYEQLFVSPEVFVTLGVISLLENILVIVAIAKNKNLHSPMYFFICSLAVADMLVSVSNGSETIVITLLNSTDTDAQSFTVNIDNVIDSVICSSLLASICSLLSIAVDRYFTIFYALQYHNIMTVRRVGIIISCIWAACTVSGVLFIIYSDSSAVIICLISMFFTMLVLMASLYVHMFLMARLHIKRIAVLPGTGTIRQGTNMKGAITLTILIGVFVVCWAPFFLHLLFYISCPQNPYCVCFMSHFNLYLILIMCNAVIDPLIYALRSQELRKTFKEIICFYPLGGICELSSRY

[4] = target: mouse melanocortin-5 receptor (mouse, UniProt P41149 1-325)
Sequence of mouse melanocortin-5 receptor (P41149 whole entry): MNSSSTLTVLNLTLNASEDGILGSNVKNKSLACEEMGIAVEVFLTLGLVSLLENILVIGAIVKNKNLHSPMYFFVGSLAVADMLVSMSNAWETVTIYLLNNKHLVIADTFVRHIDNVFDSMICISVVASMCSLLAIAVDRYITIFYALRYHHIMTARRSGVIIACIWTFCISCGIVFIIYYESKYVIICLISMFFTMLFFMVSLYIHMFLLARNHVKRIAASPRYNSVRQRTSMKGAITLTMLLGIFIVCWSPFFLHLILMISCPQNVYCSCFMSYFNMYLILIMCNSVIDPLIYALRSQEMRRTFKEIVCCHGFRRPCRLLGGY

Binder	EC50 (agonist) [1]	EC50 (agonist) [2]	EC50 (agonist) [3]	EC50 (agonist) [4]	pA2 (antagonist) [2]	pA2 (antagonist; Partial agonist) [3]	pA2 (antagonist) [3]	pA2 (antagonist; Partial agonist) [2]
Ac-[Nle]DHR[dF]FK-NH2 (lactam 2-7) [SEQ ID NO:22 (Ac-Nle-c[Asp-His-Arg-DPhe-Phe-Lys])]	440 nM	14400 nM	5000 nM	3600 nM	–	–	–	–
B1	10300 nM	13200 nM	16700 nM	7900 nM	–	–	–	–
YDHXPWNAFXY (Asp-Dpr side chain lactam bridge; Dpr; DPhe; C-terminal amide (amide resin)) [SEQ ID NO:36 (Tyr-c[Asp-His-DPhe-Pro-Trp-Asn-Ala-Phe-Dpr]-Tyr)]	990 nM	17300 nM	4300 nM	3200 nM	–	–	–	–
Ac-SYS[Nle]EH[dR]FFGKPV-NH2 [SEQ ID NO:16 (Ac-Ser-Tyr-Ser-Nle-Glu-His-DArg-Phe-Phe-Gly-Lys-Pro-Val)]	–	> 100000 nM	> 100000 nM	–	–	–	–	–
YDHXRANAFXY (Asp-Dpr side chain lactam bridge; Dpr; DPhe; C-terminal amide (amide resin)) [SEQ ID NO:27 (Tyr-c[Asp-His-DPhe-Arg-Ala-Asn-Ala-Phe-Dpr]-Tyr)]	350 nM	13500 nM	710 nM	50.1 nM	–	–	–	–
YDHXRWNAFXY (Asp-Dpr side chain lactam bridge; Dpr; DNal(2′); C-terminal amide (amide resin)) [SEQ ID NO:33 (Tyr-c[Asp-His-DNal(2′)-Arg-Trp-Asn-Ala-Phe-Dpr]-Tyr)]	5.56 nM	–	–	22.3 nM	8.3	9.3	–	–
YDRFFNAF[Dap]Y-NH2 (lactam 2-9) [SEQ ID NO:3 (Tyr-c[Asp-Arg-Phe-Phe-Asn-Ala-Phe-Dpr]-Tyr)]	–	–	–	> 100000 nM	5.7	–	5.9	–
B2	61.3 nM	> 100000 nM	–	239 nM	–	6.1	–	–
B3	0.53 nM	5.56 nM	0.27 nM	1.93 nM	–	–	–	–
B4	21.6 nM	3400 nM	260 nM	42.7 nM	–	–	–	–
YDPXRWNAFXY (Asp-Dpr side chain lactam bridge; Dpr; DPhe; C-terminal amide (amide resin)) [SEQ ID NO:28 (Tyr-c[Asp-Pro-DPhe-Arg-Trp-Asn-Ala-Phe-Dpr]-Tyr)]	22.1 nM	–	0.63 nM	7.16 nM	–	–	–	7.2
B5	2630 nM	–	> 100000 nM	–	–	–	–	–
YD[dF]RWNAF[Dap]Y-NH2 (lactam 2-9) [SEQ ID NO:7 (Tyr-c[Asp-DPhe-Arg-Trp-Asn-Ala-Phe-Dpr]-Tyr-NH2)]	4850 nM	–	450 nM	124 nM	–	–	–	–
YDHXAWNAFXY (Asp-Dpr side chain lactam bridge; Dpr; DPhe; C-terminal amide (amide resin)) [SEQ ID NO:26 (Tyr-c[Asp-His-DPhe-Ala-Trp-Asn-Ala-Phe-Dpr]-Tyr)]	66.5 nM	23800 nM	32.5 nM	2.06 nM	–	–	–	–
YDHXKWNAFXY (Asp-Dpr side chain lactam bridge; Dpr; DPhe; C-terminal amide (amide resin)) [SEQ ID NO:37 (Tyr-c[Asp-His-DPhe-Lys-Trp-Asn-Ala-Phe-Dpr]-Tyr)]	680 nM	30800 nM	8600 nM	800 nM	–	–	–	–
YDHXRWNAFXY (Asp-Dpr side chain lactam bridge; Dpr; DBip; C-terminal amide (amide resin)) [SEQ ID NO:35 (Tyr-c[Asp-His-DBip-Arg-Trp-Asn-Ala-Phe-Dpr]-Tyr)]	3.87 nM	33 nM	0.57 nM	5.27 nM	–	–	–	–
